Source: the supplement of paper PMC9112550, “Optimization of the antimicrobial peptide Bac7 by deep mutational scanning” (BMC Biology, 2022)

Test system: Escherichia coli TOP10
Assay: shrunken log2 fold change of peptide-encoding DNA abundance (4.5 h post-induction vs induction); higher = less antimicrobial activity (less host growth inhibition)
Settings: time post-induction: 4.5 h; library: site-saturation at positions 5, 18, 19, 20
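Note: peptides expressed intracellularly from a pBAD plasmid library in pooled LB shake-flask culture, induced with 0.3% L-arabinose, DNA abundance read by NGS, three biological replicates, DESeq2 with apeglm shrinkage.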

RRIRNRPPRLPRPRPRPFRNPRP
shrunken log2 fold change: -0.515

RRIRMRPPRLPRPRPRPIQLPRP
shrunken log2 fold change: -0.0799

RRIRVRPPRLPRPRPRPWIQPRP
shrunken log2 fold change: 0.0857

RRIRWRPPRLPRPRPRPTQQPRP
shrunken log2 fold change: -0.0891

RRIRERPPRLPRPRPRPWLAPRP
shrunken log2 fold change: 0.564

RRIRSRPPRLPRPRPRPDMFPRP
shrunken log2 fold change: -0.212

RRIRNRPPRLPRPRPRPEKDPRP
shrunken log2 fold change: -0.0532

RRIRPRPPRLPRPRPRPINNPRP
shrunken log2 fold change: 0.81

RRIRSRPPRLPRPRPRPIGNPRP
shrunken log2 fold change: -0.234

RRIRGRPPRLPRPRPRPIWCPRP
shrunken log2 fold change: 0.0438

RRIRYRPPRLPRPRPRPDCDPRP
shrunken log2 fold change: -0.124

RRIRPRPPRLPRPRPRPGFDPRP
shrunken log2 fold change: 0.131

RRIRGRPPRLPRPRPRPIWFPRP
shrunken log2 fold change: 0.31

RRIRPRPPRLPRPRPRPRFIPRP
shrunken log2 fold change: -0.184

RRIRWRPPRLPRPRPRPCPTPRP
shrunken log2 fold change: 0.0714

RRIRWRPPRLPRPRPRPQWVPRP
shrunken log2 fold change: 0.0902

RRIRARPPRLPRPRPRPQKTPRP
shrunken log2 fold change: 0.0194

RRIRCRPPRLPRPRPRPAFWPRP
shrunken log2 fold change: 0.232

RRIRERPPRLPRPRPRPVPRPRP
shrunken log2 fold change: 0.151

RRIRCRPPRLPRPRPRPPPFPRP
shrunken log2 fold change: 2.05

RRIRNRPPRLPRPRPRPSPMPRP
shrunken log2 fold change: -0.0245

RRIRRRPPRLPRPRPRPYLQPRP
shrunken log2 fold change: -0.548

RRIRNRPPRLPRPRPRPHTEPRP
shrunken log2 fold change: 0.0434

RRIRHRPPRLPRPRPRPNSWPRP
shrunken log2 fold change: 0.254

RRIRQRPPRLPRPRPRPMRRPRP
shrunken log2 fold change: 0.225

RRIRCRPPRLPRPRPRPKQGPRP
shrunken log2 fold change: 0.261

RRIRMRPPRLPRPRPRPHDMPRP
shrunken log2 fold change: 0.0059

RRIRVRPPRLPRPRPRPALEPRP
shrunken log2 fold change: 0.495

RRIRIRPPRLPRPRPRPHAYPRP
shrunken log2 fold change: -0.549

RRIRKRPPRLPRPRPRPYMTPRP
shrunken log2 fold change: -0.0252

RRIRWRPPRLPRPRPRPHYHPRP
shrunken log2 fold change: -0.506

RRIRHRPPRLPRPRPRPVSSPRP
shrunken log2 fold change: -0.0295

RRIRTRPPRLPRPRPRPDQRPRP
shrunken log2 fold change: -0.0808

RRIRWRPPRLPRPRPRPESGPRP
shrunken log2 fold change: 0.347

RRIRTRPPRLPRPRPRPPEFPRP
shrunken log2 fold change: -0.231

RRIRIRPPRLPRPRPRPIIAPRP
shrunken log2 fold change: -0.389

RRIRPRPPRLPRPRPRPVFRPRP
shrunken log2 fold change: -0.332

RRIRKRPPRLPRPRPRPVLPPRP
shrunken log2 fold change: 0.338

RRIRDRPPRLPRPRPRPMFLPRP
shrunken log2 fold change: 0.0737

RRIRHRPPRLPRPRPRPQQVPRP
shrunken log2 fold change: -0.0214

RRIRIRPPRLPRPRPRPPFEPRP
shrunken log2 fold change: -0.0183

RRIRTRPPRLPRPRPRPDMAPRP
shrunken log2 fold change: -0.0628

RRIRWRPPRLPRPRPRPLCTPRP
shrunken log2 fold change: 0.106

RRIRLRPPRLPRPRPRPFQSPRP
shrunken log2 fold change: 0.0501

RRIRDRPPRLPRPRPRPTHGPRP
shrunken log2 fold change: 0.117

RRIRFRPPRLPRPRPRPVIMPRP
shrunken log2 fold change: -0.297

RRIRKRPPRLPRPRPRPQGDPRP
shrunken log2 fold change: 0.0739

RRIRARPPRLPRPRPRPECCPRP
shrunken log2 fold change: 0.996

RRIRDRPPRLPRPRPRPAGDPRP
shrunken log2 fold change: 0.523

RRIRYRPPRLPRPRPRPAAKPRP
shrunken log2 fold change: 0.152

RRIRTRPPRLPRPRPRPCLSPRP
shrunken log2 fold change: 0.079

RRIRDRPPRLPRPRPRPACNPRP
shrunken log2 fold change: 0.0741

RRIRPRPPRLPRPRPRPWRIPRP
shrunken log2 fold change: -0.0585

RRIRSRPPRLPRPRPRPSGAPRP
shrunken log2 fold change: 0.12

RRIRVRPPRLPRPRPRPPMCPRP
shrunken log2 fold change: 0.0598

RRIRTRPPRLPRPRPRPLIKPRP
shrunken log2 fold change: -1.06

RRIRHRPPRLPRPRPRPDHFPRP
shrunken log2 fold change: -0.169

RRIRFRPPRLPRPRPRPPDWPRP
shrunken log2 fold change: 0.701

RRIRLRPPRLPRPRPRPFQKPRP
shrunken log2 fold change: 0.382

RRIRTRPPRLPRPRPRPPGMPRP
shrunken log2 fold change: 0.424

RRIRLRPPRLPRPRPRPMMCPRP
shrunken log2 fold change: 0.00205

RRIRHRPPRLPRPRPRPNKMPRP
shrunken log2 fold change: -0.0582

RRIRLRPPRLPRPRPRPKVRPRP
shrunken log2 fold change: 0.316

RRIRERPPRLPRPRPRPMGYPRP
shrunken log2 fold change: -0.0965

RRIRVRPPRLPRPRPRPNEWPRP
shrunken log2 fold change: 0.0106

RRIRSRPPRLPRPRPRPFHDPRP
shrunken log2 fold change: -0.204

RRIRFRPPRLPRPRPRPWTNPRP
shrunken log2 fold change: -0.289

RRIRHRPPRLPRPRPRPYAEPRP
shrunken log2 fold change: -0.0381

RRIRGRPPRLPRPRPRPHRHPRP
shrunken log2 fold change: 0.107

RRIRCRPPRLPRPRPRPKRQPRP
shrunken log2 fold change: 0.13

RRIRRRPPRLPRPRPRPPYAPRP
shrunken log2 fold change: 0.774

RRIRQRPPRLPRPRPRPYTTPRP
shrunken log2 fold change: -0.0148

RRIRFRPPRLPRPRPRPVCPPRP
shrunken log2 fold change: 0.311

RRIRRRPPRLPRPRPRPAGLPRP
shrunken log2 fold change: 0.153

RRIRLRPPRLPRPRPRPPAKPRP
shrunken log2 fold change: 0.529

RRIRKRPPRLPRPRPRPRSLPRP
shrunken log2 fold change: -0.00364

RRIRARPPRLPRPRPRPWTPPRP
shrunken log2 fold change: 0.123

RRIRYRPPRLPRPRPRPGSVPRP
shrunken log2 fold change: -0.101

RRIRWRPPRLPRPRPRPQKKPRP
shrunken log2 fold change: 0.0854

RRIRLRPPRLPRPRPRPQHRPRP
shrunken log2 fold change: -0.0199

RRIRRRPPRLPRPRPRPLHTPRP
shrunken log2 fold change: 0.321

RRIRSRPPRLPRPRPRPCCTPRP
shrunken log2 fold change: -0.0345

RRIRQRPPRLPRPRPRPSSMPRP
shrunken log2 fold change: -0.201

RRIRLRPPRLPRPRPRPTDDPRP
shrunken log2 fold change: -0.0495

RRIRSRPPRLPRPRPRPGYTPRP
shrunken log2 fold change: -0.129

RRIRERPPRLPRPRPRPWYLPRP
shrunken log2 fold change: 0.0355

RRIRVRPPRLPRPRPRPKHMPRP
shrunken log2 fold change: -0.518

RRIRLRPPRLPRPRPRPYLWPRP
shrunken log2 fold change: -0.0439

RRIRWRPPRLPRPRPRPDIDPRP
shrunken log2 fold change: 0.546

RRIRKRPPRLPRPRPRPLSHPRP
shrunken log2 fold change: 0.131

RRIRSRPPRLPRPRPRPFDPPRP
shrunken log2 fold change: -0.102

RRIRLRPPRLPRPRPRPRRYPRP
shrunken log2 fold change: -0.00737

RRIRGRPPRLPRPRPRPKDWPRP
shrunken log2 fold change: 0.914

RRIRKRPPRLPRPRPRPPLHPRP
shrunken log2 fold change: 0.694

RRIRSRPPRLPRPRPRPRREPRP
shrunken log2 fold change: 0.416

RRIRERPPRLPRPRPRPHNNPRP
shrunken log2 fold change: 0.486

RRIRYRPPRLPRPRPRPHVNPRP
shrunken log2 fold change: -0.0934

RRIRTRPPRLPRPRPRPQVKPRP
shrunken log2 fold change: -0.0733

RRIRYRPPRLPRPRPRPDFKPRP
shrunken log2 fold change: -0.261

RRIRKRPPRLPRPRPRPLYNPRP
shrunken log2 fold change: -0.263

RRIRLRPPRLPRPRPRPRHGPRP
shrunken log2 fold change: 0.414

RRIRARPPRLPRPRPRPVHGPRP
shrunken log2 fold change: 0.785

RRIRDRPPRLPRPRPRPWKNPRP
shrunken log2 fold change: -0.0182

RRIRMRPPRLPRPRPRPIFWPRP
shrunken log2 fold change: 0.337

RRIRPRPPRLPRPRPRPKHTPRP
shrunken log2 fold change: -0.198

RRIRVRPPRLPRPRPRPVNKPRP
shrunken log2 fold change: -0.186

RRIRFRPPRLPRPRPRPLIRPRP
shrunken log2 fold change: -0.382

RRIRERPPRLPRPRPRPHSWPRP
shrunken log2 fold change: -0.183

RRIRVRPPRLPRPRPRPQKVPRP
shrunken log2 fold change: -0.355

RRIRMRPPRLPRPRPRPESEPRP
shrunken log2 fold change: 3.39

RRIRPRPPRLPRPRPRPRCGPRP
shrunken log2 fold change: 0.282

RRIRARPPRLPRPRPRPRVNPRP
shrunken log2 fold change: 0.631

RRIRPRPPRLPRPRPRPVHRPRP
shrunken log2 fold change: 0.0193

RRIRCRPPRLPRPRPRPNETPRP
shrunken log2 fold change: -0.0198

RRIRARPPRLPRPRPRPNIPPRP
shrunken log2 fold change: -0.223

RRIRIRPPRLPRPRPRPHQNPRP
shrunken log2 fold change: -0.165

RRIRCRPPRLPRPRPRPWRQPRP
shrunken log2 fold change: -0.167

RRIRLRPPRLPRPRPRPDMAPRP
shrunken log2 fold change: 0.0097

RRIRYRPPRLPRPRPRPGADPRP
shrunken log2 fold change: -0.177

RRIRCRPPRLPRPRPRPADRPRP
shrunken log2 fold change: -0.0122

RRIRERPPRLPRPRPRPDDLPRP
shrunken log2 fold change: 0.00911

RRIRLRPPRLPRPRPRPCVIPRP
shrunken log2 fold change: -0.27

RRIRNRPPRLPRPRPRPPNLPRP
shrunken log2 fold change: -0.166

RRIRLRPPRLPRPRPRPIECPRP
shrunken log2 fold change: 0.0614

RRIRKRPPRLPRPRPRPGSYPRP
shrunken log2 fold change: -0.00588

RRIRGRPPRLPRPRPRPMKPPRP
shrunken log2 fold change: 0.276

RRIRQRPPRLPRPRPRPVWLPRP
shrunken log2 fold change: 0.2

RRIRHRPPRLPRPRPRPATCPRP
shrunken log2 fold change: -0.196

RRIRRRPPRLPRPRPRPVIPPRP
shrunken log2 fold change: 0.272

RRIRHRPPRLPRPRPRPDPCPRP
shrunken log2 fold change: -0.186

RRIRDRPPRLPRPRPRPWNWPRP
shrunken log2 fold change: 0.0868

RRIRHRPPRLPRPRPRPVYQPRP
shrunken log2 fold change: -0.359

RRIRLRPPRLPRPRPRPFCAPRP
shrunken log2 fold change: 0.106

RRIRLRPPRLPRPRPRPMCQPRP
shrunken log2 fold change: 0.0751

RRIRGRPPRLPRPRPRPKPPPRP
shrunken log2 fold change: 2.28

RRIRWRPPRLPRPRPRPRYVPRP
shrunken log2 fold change: -0.147

RRIRFRPPRLPRPRPRPMYHPRP
shrunken log2 fold change: -1.01

RRIRSRPPRLPRPRPRPRELPRP
shrunken log2 fold change: 0.0421

RRIRWRPPRLPRPRPRPKDGPRP
shrunken log2 fold change: 0.00598

RRIRFRPPRLPRPRPRPTPDPRP
shrunken log2 fold change: 0.485

RRIRQRPPRLPRPRPRPNKGPRP
shrunken log2 fold change: -0.0896

RRIRERPPRLPRPRPRPMDYPRP
shrunken log2 fold change: -0.214

RRIRRRPPRLPRPRPRPRTTPRP
shrunken log2 fold change: 0.406

RRIRKRPPRLPRPRPRPIMNPRP
shrunken log2 fold change: -0.119

RRIRKRPPRLPRPRPRPAHQPRP
shrunken log2 fold change: 0.162

RRIRCRPPRLPRPRPRPVKYPRP
shrunken log2 fold change: -0.596

RRIRWRPPRLPRPRPRPRIEPRP
shrunken log2 fold change: 0.186

RRIRQRPPRLPRPRPRPDCIPRP
shrunken log2 fold change: -0.0167

RRIRIRPPRLPRPRPRPKAFPRP
shrunken log2 fold change: -0.122

RRIRKRPPRLPRPRPRPKGNPRP
shrunken log2 fold change: 0.325
